Here are results for 1 substance from PMC2784926.

The target in this experiment is β-catenin (UniProt P35222). The experiment is described as follows: GST pull-down after in vitro kinase reaction. To be noted: reference: WT His-α-catenin with CK2α; sites S641.

“α-catenin (from UniProt P35221) His-α-catenin S641A with CK2α”: the “binding against the reference” value is reported as “stronger”.
